The record followed here is the RNAGym collection of RNA variant scans (doi:10.7554/elife.90254).

The chains are these.
B1: OR4K15 (parent)
chain: GUUAACGGUCAUAGGCCAUGGAAACUAGGAGCACCAUUUCGCUGCCAGUGAAGAAAUGAACAAAGAAAAUCUGGGCCAGGCAGGCAUCAAAAGAAAUAGUCUUGCGCUCAACCAGAAAGUCUGUAAUCAUUUUAAGGGUA

The variants in this data set derive from B1. The experiment in a line: self-cleavage, relative activity (ratio to wild type); higher = more cleavage; in vitro, sequencing; the parent is a self-cleaving ribozyme.
Regarding GUUAACGGUCAUAGGCCAUGGAAACUAGGAGCACCAUUUCGCUGCCAGCGAAGAAAUGAACAAAGAAAAUCUGGGCCAGGCAGGCAUCAAAAGAAAUAGUCUUGCGCUCAACCAGGAAGUCUGUAAUCAUUUUAAGGGUA [U49C A116G], the self-cleavage was 0.82.
As for GUUAACGGUCAUAGGCCAUGGAGACUAGGAGCACCAUUUCGCUGCCAGUGAACAAAUGAACAAAGAAAAUCUGGGCCAGGCAGGCAUCAAAAGAAAUAGUCUUGCGCUCAACCAGAAAGUCUGUAAUCAUUUUAAGGGUA [A23G G53C], the self-cleavage came to 1.82.
Then GUUAACGGUCAUUGGCCAUGGAAACUAGGAGCACCAUUUCGCUGCCAGUGAAGAAAUGAACAAAGAAAAUCUGGGCCAGGCAGGCAUCAAAAGAAAUAGUCUUGCGUUCAACCAGAAAGUCUGUAAUCAUUUUAAGGGUA [A13U C107U], with 0.
Turning to GUUAACGGUCAUAGGCAAUGGAAACUAGGAGCACCAUUUCGCUGCCAGUGAAGAAAUGAACAAAGAAAAUCUGGGCCAGGCAGGCAUCAAAAGAAAUAGUCUUGCGCUCAACCAGAAAGUCUGUAAUCAUUUUACGGGUA [C17A A135C], the self-cleavage amounted to 1.23.
The value for GUUAACGGUCAUAGGCCAUGGAAACUAGGAGCACCAUUUCGCUGCCAGUGAAGAAAUGAGCAAAGAAAAUCUGGGCCAGGCAGUCAUCAAAAGAAAUAGUCUUGCGCUCAACCAGAAAGUCUGUAAUCAUUUUAAGGGUA [A60G G84U] was 0.43; that for GUUAACGGUCAUAGGCCAUGGAAACUAGGGGCACCAUUUCGCUGCCAGUGAAGAAAUGAACAAAGAAAAUCUGGGCCAGGCAGGCAUCAAAAGAAAUAGUCAUGCGCUCAACCAGAAAGUCUGUAAUCAUUUUAAGGGUA [A30G U102A] was 0.78; that for GUUAACGGUCAUAGGCCAUGGAAACUAGGAGCACCAUUUCGCUGCCAGUGAAGAAAUGAACAAAGAAAAUCUGGGCCAGGCAGGCAUCAAAAGAAAUAGUCUUGCGCUCAACCAGAGAGUCUGUAAUCAUUUCAAGGGUA [A117G U133C] was 1.85.
Then GUUAACGGUCAUAGGCCAUGGAAACUAGGAGCACCAUUUCGCUGCCAGUGAAGAAAUGAACAAAGAAAAUCAGGGCCAGGCAGGCAUCGAAAGAAAUAGUCUUGCGCUCAACCAGAAAGUCUGUAAUCAUUUUAAGGGUA [U72A A89G], with 0.36.
For the variant GUUAACGGUCAUAGGCCAUGGAAACUAGGAGCACCAUUUAGCUGCCAGUGAAGAAAUGAACAAAGAAAAUCUGGGCCAGGCAGGCAUCAAAAGAAAUAGUCUUGCGCUCAACCAGAAAGUCCGUAAUCAUUUUAAGGGUA [C40A U122C], the self-cleavage amounted to 1.07.
Turning to GUUAACGGUCAUAGGCCAUGGAAACUAGGAGCACCAUUUCGCUGCCAGUGAAGAAAUGAACAAAGAAAAUCUGGGCCAGGCAGGCAUCAAAGGAAAUAGUCUUGCGCUCAACCAGAAGGUCUGUAAUCAUUUUAAGGGUA [A92G A118G], the self-cleavage turned out to be 1.26.
With GUUAACGGUCAUAGGCCUUGGAAACUAGGAGCACCAUUUCGCUGCCAGUGAAGAAAUGAACAAGGAAAAUCUGGGCCAGGCAGGCAUCAAAAGAAAUAGUCUUGCGCUCAACCAGAAAGUCUGUAAUCAUUUUAAGGGUA [A18U A64G], the self-cleavage was 0.9.
As to GUUAACGGUCAUAGGCCAUGGAAACUAGGAGCACCAUUUCGCUGCCAGUGAAGAAAUGAACAAAGAGAAUCUGGGCCAGGCAGGCAUCAAAAGAAAUAGUCUUGCGCUCAACCAGAAAGUCUGUAAUCAUUUUAAGGGUU [A67G A140U], the self-cleavage turned out to be 1.93.
For GUUAACGGUCGUAGGCCAUGGAAACUAGGAGCACCAUUUCGCUGCCAGUGAGGAAAUGAACAAAGAAAAUCUGGGCCAGGCAGGCAUCAAAAGAAAUAGUCUUGCGCUCAACCAGAAAGUCUGUAAUCAUUUUAAGGGUA [A11G A52G], the self-cleavage amounted to 1.03.
The value for GUUAACGGUCAUAGGCCAUGGAAACUAGGAGCACCAUUUCGCUGCCGGUGAAGAAAUGAACAAAGAAAAUCUGGUCCAGGCAGGCAUCAAAAGAAAUAGUCUUGCGCUCAACCAGAAAGUCUGUAAUCAUUUUAAGGGUA [A47G G75U] was 0.16; that for GUUAACGGUCCUAGGCCAUGGAAACUUGGAGCACCAUUUCGCUGCCAGUGAAGAAAUGAACAAAGAAAAUCUGGGCCAGGCAGGCAUCAAAAGAAAUAGUCUUGCGCUCAACCAGAAAGUCUGUAAUCAUUUUAAGGGUA [A11C A27U] was 1.24; that for GUUAACGGUCAUAAGCCAUGGAAACUAGGAGCACCAUUUCGCUGCCAGUGAAGAAAUGAACAAAGAAAAUCUGGGCCAGGCAGGCAUCAAAAGAAAUAGUCUUGCGCUCAACCAGAAAGUCUGCAAUCAUUUUAAGGGUA [G14A U124C] was 0.47.
Turning to GUUAACGGUCAUAGGCCAUGGAAACUAGGAGCACCAUUUCGCUGCCAGUGAAGAAAUGAACAAAGAAGAUCUGGGCCAGGCAGGCAUCAAAAGAAAUAGUCUUGCGCUCAUCCAGAAAGUCUGUAAUCAUUUUAAGGGUA [A68G A111U], the self-cleavage was 0.21.
Turning to GUUAACGGUCAUAGGCCAUGGAAACUAGGAGCACCAUUUCGCUGCCAGUGCAGAAAUGAACAAAGAAAAUCUGGGCCAGGCAGGCAUCAAGAGAAAUAGUCUUGCGCUCAACCAGAAAGUCUGUAAUCAUUUUAAGGGUA [A51C A91G], the self-cleavage worked out at 1.33.
As to GUUAACGGUCAUAGGCCAUGGAAACUAGGAGCUCCAUUUCGCUGCCAGUGAAGAAAUGAACAAAGAAAAUCUGGGCCAGGCAGGCAUCAAAAGAAAUAGUCUUGCGCUCAACCAGAAAGUCAGUAAUCAUUUUAAGGGUA [A33U U122A], the self-cleavage was 2.69.
The value for GUUAACGGUCAUAGGCCAUGGAAACUAGGAGCACCAUUUCGCUGCCAGUGAAGAAAUGAACAAAGGAAAUCUGGGCCAGGCAGGCAUCAAAAGAAAUAGUCUUGCGCUCAACCAGAAAGUCUGUAUUCAUUUUAAGGGUA [A66G A126U] was 1.54.
Then GUUAACGGUCAUAGGCCAUGGAAACUAGGAGCACCAUUUCGCUGCCAGUGAAGAAAUGAACAAAGAAAAUCUGGGCCAGGCAGGCAUCAAAAGAACUAGUCUUGCGCUCAACCAGAAGGUCUGUAAUCAUUUUAAGGGUA [A96C A118G], with 0.95; and GUUAACGGUCAUAGGCCAUGGAAACUAGGAGCACCAUUUCGCUGCCAUUGAAGAAAUGAACAAAGAAAAUCUGGGCCAGGCAGGCAUCAAAAGAAAUAGUCUUGCGCUCAACCAGAAGGUCUGUAAUCAUUUUAAGGGUA [G48U A118G], with 1.08; and AUUAACGGUCAUAGGCCAUGGAAACUAGGAGCACCAUUUCGCUGCCAGUGAAGAAAUGAACAAAGAAAAUCUGGGCCAGGCAGGCAUCAAAAGAAAUAGUCUUGCGCCCAACCAGAAAGUCUGUAAUCAUUUUAAGGGUA [G1A U108C], with 0.05.
Consider GUUAACGGUCAUAGGCCAUGGAAACUAUGAGCACCAUUUCGCUGCCAGUGAAGAAAUGAACGAAGAAAAUCUGGGCCAGGCAGGCAUCAAAAGAAAUAGUCUUGCGCUCAACCAGAAAGUCUGUAAUCAUUUUAAGGGUA [G28U A62G], for which the self-cleavage was 1.64.
GUCAACGGUCAUAGGCCAUGGAAACUAGGAGCACCAUUUCGCUGCCAGUGCAGAAAUGAACAAAGAAAAUCUGGGCCAGGCAGGCAUCAAAAGAAAUAGUCUUGCGCUCAACCAGAAAGUCUGUAAUCAUUUUAAGGGUA [U3C A51C]: the self-cleavage came out at 0.84.
The value for GUUAACGGUCAUAGGCCAUGGAAACUAGGAGCACCAUUUCGCUGCCAGUGAAGAAAUGAACAAAGAAAAUCUGGGCCAGGCAGGCAUCAAAAGAAACAGUCUUGCGCUCAACCAGAAAGUCUGUAAUCAUUUUUAGGGUA [U97C A134U] was 1.69; that for GUUAACGGUCAUAGGCCAUGGAAACUAGGAGCACCAUUUCGCUGCCAGUGAAGAAAUGAACAAAGAAAAUCUGGGCCAGGCAGGCAUCAAAAGAAAUGGUCUUGCGCUCAACCAGAAAGUCUGUAGUCAUUUUAAGGGUA [A98G A126G] was 0.34; that for GUUAACGGUCAUUGGCCAUGGAAACUAGGAGCACCAUUUCGCUGCCAGUGAAGAAAUGAACAAAGAAAAUCUGGGCCAGGCAGGCAUCAAAAGAAAUAGUCUUGCGCUCAACCAGAGAGUCUGUAAUCAUUUUAAGGGUA [A13U A117G] was 2.05.
Then GUUAACGGUCAUAGGCCAUGGAAACUAGGAGCACCAUUUCGCUGCCAGUGAUGAAAUGUACAAAGAAAAUCUGGGCCAGGCAGGCAUCAAAAGAAAUAGUCUUGCGCUCAACCAGAAAGUCUGUAAUCAUUUUAAGGGUA [A52U A59U], with 1.99; and GUUAACGGUCAUAGGCCAUGGAAACUAGGAGCACCAUUUCGCUGCCAGUGAAGAAAUGAACAAAGAAAAUCUGGGCCAGGCAGGCAUCAAAAGAAAUAGUCUUGCGCCCAACCAGAAAGUCUGUAGUCAUUUUAAGGGUA [U108C A126G], with 0.
For the variant GUUAACGGUCAUAGGCCAUGGAAACUAGGAGCACCAUUUCGCUGCCAGUGAAGAAAUGAACAAAGAAAAUCUGGGCCAGGCAGGCAUCAAAAGAAAUGGUCUUGCGCUCAACCAGAAAGUCUGUGAUCAUUUUAAGGGUA [A98G A125G], the self-cleavage is 0.13.
Turning to GUUAACGGUCAUAGGCCAUGGAAACUAGGAGCACCAUUUCGCUGCCAGUGAAGAAAUGAACAAAGAAAAUCAGGGCCAGGCAGGCAUCAAAAGAAAUAGUCUUGCGCUCUACCAGAAAGUCUGUAAUCAUUUUAAGGGUA [U72A A110U], the self-cleavage was 0.29.
Consider GUUAACGGUCAUAGGCCAUGGAAACUGGGAGCACCAUUUCGCUGCCAGUGAAGAAAUGAACAAAGAAAAUCUGGGCCAGGCGGGCAUCAAAAGAAAUAGUCUUGCGCUCAACCAGAAAGUCUGUAAUCAUUUUAAGGGUA [A27G A82G], for which the self-cleavage is 0.33.
As for GUUAACGGUCAUAGGCCAUGGAAACUAGGAGCACCAUUUCGCUGCCAGUGAAGAAAUGAACAAAGAAAACCUGGGCCAGGCAGGCAUUAAAAGAAAUAGUCUUGCGCUCAACCAGAAAGUCUGUAAUCAUUUUAAGGGUA [U70C C88U], the self-cleavage was 1.54.
In the case of GUUAACGGUCAUAGGCCAUGGAAACUAGGAGCACCAUUUCGCUGCCAGUGAAGAAAUGAACAAAAGAAAUCUGGGCCAGGCAGGCAUCAAAAGAAAUAGUCUUGCGCUCAACCAGAAAGUCUGUAAUCAUUUUAAGGGUA [G65A A66G], the self-cleavage is 1.13.
As for GUUAACGGUCAUAGGCCAUGGAAACUAGGAGCACCAUUUCGCUGCCAGUGAAGAAACGAACAAAGAAAAUCUGGGCCAGGCAGGCAUCAAAAGAAAUAGUCUUGCUCUCAACCAGAAAGUCUGUAAUCAUUUUAAGGGUA [U57C G106U], the self-cleavage amounted to 0.03.
Take GUUAACGGUCAUAGGCCAUGGAAACUAGGAGCACCAUUUCGCUGCCAGUGAAGAAAUGAACAAAGAAAAUCUGGGCCAGGCAGGCAUCAAAAGAAAUAGCCUUGCGCUCAACCAGGAAGUCUGUAAUCAUUUUAAGGGUA [U100C A116G]: the self-cleavage is 1.32.
On to GUUAACGGUCAUAGGCCAUGGAAACUCGGAGCACCCUUUCGCUGCCAGUGAAGAAAUGAACAAAGAAAAUCUGGGCCAGGCAGGCAUCAAAAGAAAUAGUCUUGCGCUCAACCAGAAAGUCUGUAAUCAUUUUAAGGGUA [A27C A36C], for which the self-cleavage is 2.11.
As to GUUAACGGUCAUAGGCCAUGGAAACUAGGAGCACCAUUUCGCUGCCAGUGAAGAAGUGAACAAAGAAGAUCUGGGCCAGGCAGGCAUCAAAAGAAAUAGUCUUGCGCUCAACCAGAAAGUCUGUAAUCAUUUUAAGGGUA [A56G A68G], the self-cleavage turned out to be 1.51.
Regarding GUUAACGGUCAUAGGCCAUGGAAACUAGGAGCACCAUUUCGCUGCCGGUGAAGAAAUGAACAAAGAAAAUCUGGGCCAGGCAGGCAACAAAAGAAAUAGUCUUGCGCUCAACCAGAAAGUCUGUAAUCAUUUUAAGGGUA [A47G U87A], the self-cleavage came out at 1.63.
Then GUUAACGGUCGUAGGCCAUGGAAACUAGGAGCACCAUUUCGCUGCCAGUGAAGAAAUGAACAAAGAAAAUCUGGGCCAGGCAGGCAUCAAAAGAAAUAGUCUUGCGCUCAACCAGAAAGUCUGUAAUCAUUUUAAUGGUA [A11G G136U], with 1.19.
